Patent US20160263137A1

How the values were obtained:
[1] = biological target: death receptor (DR) on the plasma membrane of MDA-MB-231 cells; assay: fluorescence of cell-associated r-TRAIL on MDA-MB-231 cells, 4 C (membrane only) against 37 C (membrane plus internalised), r-TRAIL-Gelipo 0.2 ug/mL after HAase treatment
[2] = biological target: death receptor (DR) on the plasma membrane of MDA-MB-231 cells; assay: cell-based or functional assay

Substance | percent of r-TRAIL bound onto the membrane [1] | apoptosis ratio, Annexin V-FITC/PI flow cytometry, MDA-MB-231 cells, 12 h, free TRAIL 2 ng/mL [2] | apoptosis ratio, Annexin V-FITC/PI flow cytometry, MDA-MB-231 cells, 12 h, free TRAIL 20 ng/mL [2] | viability, Annexin V-FITC/PI flow cytometry, MDA-MB-231 cells, 12 h, free TRAIL 20 ng/mL [2]
rhodamine-labeled TRAIL (His-ILZ-TRAIL, residues 114-281, labelled with rhodamine NHS ester) (from UniProt P50591 114-281) (ligand) | 80% | – | – | –
His-ILZ-TRAIL (residues 114-281) (from UniProt P50591 114-281) (ligand) | – | 36.5% | 51.7% | 32.3%
